Assays:
[1] = target: T1, cynomolgus monkey CD96, native, on primary cynomolgus monkey T cells (cynomolgus monkey, UniProt A0A2K5TWV6 22-569); assay: flow cytometry on activated cynomolgus monkey T cells, donor 1
T1 construct: whole, on cells
T1 sequence: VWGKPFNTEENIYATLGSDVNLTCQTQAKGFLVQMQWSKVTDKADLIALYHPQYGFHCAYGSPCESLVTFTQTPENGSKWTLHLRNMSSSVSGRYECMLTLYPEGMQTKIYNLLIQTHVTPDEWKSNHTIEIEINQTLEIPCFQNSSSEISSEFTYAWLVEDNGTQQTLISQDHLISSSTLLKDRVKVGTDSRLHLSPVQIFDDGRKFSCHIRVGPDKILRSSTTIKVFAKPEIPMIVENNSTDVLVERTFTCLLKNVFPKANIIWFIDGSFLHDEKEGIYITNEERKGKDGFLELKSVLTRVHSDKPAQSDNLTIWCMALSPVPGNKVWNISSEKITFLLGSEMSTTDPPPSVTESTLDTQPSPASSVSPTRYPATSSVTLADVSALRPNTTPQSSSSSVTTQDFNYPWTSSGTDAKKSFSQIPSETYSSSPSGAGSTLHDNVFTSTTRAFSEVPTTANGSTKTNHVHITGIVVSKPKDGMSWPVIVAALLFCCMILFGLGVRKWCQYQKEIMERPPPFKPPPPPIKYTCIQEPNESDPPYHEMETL

[2] = target: T2, cynomolgus monkey CD96v2 expressed on cells (CHO cells; transiently transfected HEK cells) (cynomolgus monkey, UniProt A0A2K5TWV6 22-569); assay: flow cytometry on transiently transfected HEK cells; lower end of range, n = 3
T2 construct: the cell is named under assay; also called CHO-cyCD96; Cyno CD96v2
T2 sequence: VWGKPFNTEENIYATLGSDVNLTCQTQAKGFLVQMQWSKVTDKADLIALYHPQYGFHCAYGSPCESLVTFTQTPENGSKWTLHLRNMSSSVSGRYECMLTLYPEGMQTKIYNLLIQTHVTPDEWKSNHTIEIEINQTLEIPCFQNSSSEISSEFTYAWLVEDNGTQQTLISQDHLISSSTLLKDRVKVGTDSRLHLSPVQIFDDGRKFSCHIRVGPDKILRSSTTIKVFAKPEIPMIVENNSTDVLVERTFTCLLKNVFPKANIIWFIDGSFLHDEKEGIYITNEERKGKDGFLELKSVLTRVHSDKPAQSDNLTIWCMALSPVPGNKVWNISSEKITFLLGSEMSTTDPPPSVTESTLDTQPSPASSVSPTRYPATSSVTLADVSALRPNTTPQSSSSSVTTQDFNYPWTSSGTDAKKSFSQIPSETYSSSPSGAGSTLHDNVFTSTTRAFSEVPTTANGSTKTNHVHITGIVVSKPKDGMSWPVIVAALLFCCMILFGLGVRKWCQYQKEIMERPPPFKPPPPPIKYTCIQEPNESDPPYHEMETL

[3] = target: T3, human CD96v1 on transiently transfected HEK cells (human, UniProt P40200 22-585); assay: as above
T3 construct: whole, on cells
T3 sequence (looked up): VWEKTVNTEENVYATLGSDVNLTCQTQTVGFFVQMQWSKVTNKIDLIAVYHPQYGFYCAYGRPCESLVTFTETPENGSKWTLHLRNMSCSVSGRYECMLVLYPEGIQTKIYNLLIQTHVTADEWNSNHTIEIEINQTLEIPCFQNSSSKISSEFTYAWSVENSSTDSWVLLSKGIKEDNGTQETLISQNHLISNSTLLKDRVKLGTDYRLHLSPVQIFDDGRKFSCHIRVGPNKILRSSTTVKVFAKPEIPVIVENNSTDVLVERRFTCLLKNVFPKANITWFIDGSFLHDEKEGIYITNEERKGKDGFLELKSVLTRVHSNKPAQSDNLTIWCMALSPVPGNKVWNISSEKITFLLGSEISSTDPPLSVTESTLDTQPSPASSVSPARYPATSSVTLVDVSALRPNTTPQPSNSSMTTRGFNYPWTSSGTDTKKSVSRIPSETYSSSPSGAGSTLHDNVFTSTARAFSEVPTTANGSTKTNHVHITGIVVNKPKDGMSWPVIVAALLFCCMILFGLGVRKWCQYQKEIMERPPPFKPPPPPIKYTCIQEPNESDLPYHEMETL

[4] = target: T4, human CD96v2 expressed on cells (CHO cells; transiently transfected HEK cells) (human, UniProt P40200-2 22-569); assay: flow cytometry on transiently transfected HEK cells (Human CD96v2)
T4 construct: whole, on cells; the cell is named under assay; also called CHO-huCD96; hCD96v2
T4 sequence (looked up): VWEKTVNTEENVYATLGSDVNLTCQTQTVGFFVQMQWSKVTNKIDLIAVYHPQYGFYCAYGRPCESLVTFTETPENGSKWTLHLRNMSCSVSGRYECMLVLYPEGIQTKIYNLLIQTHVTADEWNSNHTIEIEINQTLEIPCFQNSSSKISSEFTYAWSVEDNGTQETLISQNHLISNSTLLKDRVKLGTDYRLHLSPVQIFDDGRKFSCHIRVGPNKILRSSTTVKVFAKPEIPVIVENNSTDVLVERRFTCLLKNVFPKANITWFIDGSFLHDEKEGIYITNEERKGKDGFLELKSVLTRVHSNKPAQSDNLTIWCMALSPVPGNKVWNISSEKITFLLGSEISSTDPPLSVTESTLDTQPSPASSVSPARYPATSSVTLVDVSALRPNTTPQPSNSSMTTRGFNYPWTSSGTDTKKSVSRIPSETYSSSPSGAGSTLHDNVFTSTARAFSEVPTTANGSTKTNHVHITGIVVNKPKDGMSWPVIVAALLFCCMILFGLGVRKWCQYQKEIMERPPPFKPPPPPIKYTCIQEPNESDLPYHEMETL

[5] = target: T5, human complement component C1q (human, UniProt P02745 23-245; P02746 28-253; P02747 29-245); assay: SPR
T5 construct: the three subunits are from general knowledge
T5 sequence (P02745 23-245 limits assumed, chain 1 of 3): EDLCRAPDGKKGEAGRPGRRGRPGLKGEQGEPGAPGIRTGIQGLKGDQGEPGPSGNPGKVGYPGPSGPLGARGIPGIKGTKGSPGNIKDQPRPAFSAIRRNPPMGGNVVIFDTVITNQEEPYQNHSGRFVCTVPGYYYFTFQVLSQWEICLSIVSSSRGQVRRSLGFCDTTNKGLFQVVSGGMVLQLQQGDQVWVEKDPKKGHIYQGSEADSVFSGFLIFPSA
T5 sequence (P02746 28-253 limits assumed, chain 2 of 3): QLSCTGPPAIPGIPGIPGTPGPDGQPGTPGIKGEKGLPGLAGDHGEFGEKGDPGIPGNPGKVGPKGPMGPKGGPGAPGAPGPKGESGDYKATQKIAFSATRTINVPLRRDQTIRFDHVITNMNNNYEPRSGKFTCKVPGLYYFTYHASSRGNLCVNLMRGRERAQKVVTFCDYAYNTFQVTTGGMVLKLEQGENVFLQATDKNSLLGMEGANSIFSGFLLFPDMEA
T5 sequence (P02747 29-245 limits assumed, chain 3 of 3): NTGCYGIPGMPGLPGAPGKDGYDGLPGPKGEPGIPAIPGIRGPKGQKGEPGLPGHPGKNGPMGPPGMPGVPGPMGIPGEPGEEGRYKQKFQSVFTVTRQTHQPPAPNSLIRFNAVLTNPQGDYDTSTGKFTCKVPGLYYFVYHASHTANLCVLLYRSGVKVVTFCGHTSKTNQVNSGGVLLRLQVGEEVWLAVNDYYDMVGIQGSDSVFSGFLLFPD

[6] = target: T2, cynomolgus monkey CD96v2 expressed on …; assay: flow cytometry on transiently transfected HEK cells (Cyno CD96v2)
recombinant human CD96v2 = target: T6, recombinant human CD96v2 (human, UniProt P40200-2 22-503, limits assumed, biotinylated (site not stated)); assay: MSD-SET solution equilibrium titration, antibody titrated against constant biotinylated CD96, free antigen detected
T6 construct: Soluble recombinant protein used in MSD-SET; also called Biotinylated human CD96 protein
T6 sequence (looked up): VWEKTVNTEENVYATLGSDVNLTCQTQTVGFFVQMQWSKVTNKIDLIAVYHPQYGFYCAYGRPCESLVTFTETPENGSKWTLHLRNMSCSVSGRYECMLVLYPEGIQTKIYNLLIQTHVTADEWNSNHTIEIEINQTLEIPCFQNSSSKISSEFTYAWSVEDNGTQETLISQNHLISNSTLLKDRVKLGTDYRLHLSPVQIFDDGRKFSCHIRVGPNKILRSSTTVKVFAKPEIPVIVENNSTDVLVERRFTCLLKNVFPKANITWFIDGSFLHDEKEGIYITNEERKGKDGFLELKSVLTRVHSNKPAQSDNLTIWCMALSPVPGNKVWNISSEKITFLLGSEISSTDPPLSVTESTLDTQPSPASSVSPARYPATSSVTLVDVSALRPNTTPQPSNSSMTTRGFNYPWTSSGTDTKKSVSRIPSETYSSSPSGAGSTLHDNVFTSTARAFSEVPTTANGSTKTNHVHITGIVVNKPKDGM

B1: 42Y073-86F08-66 (antibody)
heavy: not shown
light: DIQLTQSPSSLSASVGDRVTITCRASQSISSYLNWYQQKPGKAPKLLIYAASSLQSGVPSRFSGSGSGTDFTLTISSLQPEDFATYYCQQVLHTITFGGGTKVEIKRTVAAPSVFIFPPSDEQLKSGTASVVCLLNNFYPREAKVQWKVDNALQSGNSQESVTEQDSKDSTYSLSSTLTLSKADYEKHKVYACEVTHQGLSSPVTKSFNRGEC
notes: also called GSK 6097608; GSK6097608
EC50 (read off the curve) [1]: ~0.05 nM | EC50 [2]: 5.54 nM | EC50 [3]: 3.13 nM | EC50 (read off the curve) [4]: ~6 nM | Kd [5]: 94.4 nM | EC50 (read off the curve) [6]: ~6 nM | IC50 (read off the curve) (recombinant human CD96v2): ~0.06 nM
